Measurements reported in paper PMC1919509 (Nucleic Acids Research, 2007).

Biological target: Single-stranded DNA binding protein (SSB), over-expressed recombinant (E. coli, UniProt P0AGE0 1-178)
Test: cross-linking

Chain of Single-stranded DNA binding protein (SSB), over-expressed recombinant (P0AGE0 whole entry): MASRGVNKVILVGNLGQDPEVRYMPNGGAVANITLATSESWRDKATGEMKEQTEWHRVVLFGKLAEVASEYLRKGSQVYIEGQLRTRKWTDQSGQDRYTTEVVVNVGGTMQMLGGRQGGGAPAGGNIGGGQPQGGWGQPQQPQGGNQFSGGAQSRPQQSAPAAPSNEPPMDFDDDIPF

B1: Exonuclease IX (ExoIX), native recombinant (natural protein, E. coli, UniProt P38506 1-251, looked up)
chain: MAVHLLIVDALNLIRRIHAVQGSPCVETCQHALDQLIMHSQPTHAVAVFDDENRSSGWRHQRLPDYKAGRPPMPEELHDEMPALRAAFEQRGVPCWSTSGNEADDLAATLAVKVTQAGHQATIVSTDKGYCQLLSPTLRIRDYFQKRWLDAPFIDKEFGVQPQQLPDYWGLAGISSSKVPGVAGIGPKSATQLLVEFQSLEGIYENLDAVAEKWRKKLETHKEMAFLCRDIARLQTDLHIDGNLQQLRLVR
  stoichiometry N: 2 ExoIX molecules per SSB tetramer
